Legend:
[1] = tested on: MM.1S multiple myeloma cells; test: Disseminated MM.1S multiple myeloma model; type: in vivo, mouse; details: NSG mice; for survival: MM.1S i.v., day 129 post inoculation; for tumor burden: hCD138+ myeloma cells in the bone marrow / hCD138+ cells in the bone marrow: MM.1S; for tumor burden: hCD138+ myeloma cells in the bone marrow: day 32; for hCD138+ cells in the bone marrow: day 129
Procedure: Female NOD SCID gamma (NSG) mice 8 weeks of age were inoculated with multiple myeloma MM.1S cells into the tail vein. Randomization by body weight and start of treatment was initiated 11 days post tumor inoculation. Treatment groups are outlined in Table 5. Test articles were formulated in 10 mM citrate, pH 6.0, 10% sucrose and diluted in PBS for administration. […] For each group, a subset of animals was used for bone marrow harvest and analysis (n=3) and the remaining animals (n=5) were monitored for survival. Survival endpoint was characterized by >20% body weight loss and clinical signs including lethargy, hind limb paralysis or moribundity. On day 32 (3 weeks after start of treatment), 3 animals from each group were randomly chosen to be euthanized for bone marrow harvest (pooled from tibia and femur) for flow cytometry. On day 129 (˜4 months after start of treatment), all surviving animals were euthanized and bone marrow was harvested (pooled from tibia and femur) for flow cytometry.
Body weights were monitored at least twice per week for up to 129 days. All graphs are presented as mean±standard error of the mean (SEM) versus days post-treatment start.
Percent body weight change (BWC) is calculated relative to weight on the day of treatment. Substantial toxicity was defined as a >20% decrease in animal weight, at which point affected animals are euthanized.
(§1) Bone marrow cells from mouse femur and tibia were pooled and assessed for human CD138 expression using the Alexa Fluor 647 mouse anti-human CD138 clone MI15 (BD Biosciences #562097) according to the manufacturer's protocol. CD138 is a specific surface antigen for MM and plasma cells in the bone marrow (Chilosi, M. et al. (1999), supra). Direct immunofluorescence flow cytometric analysis was performed using an LSRII flow cytometer and FACS Diva Software. Data was analyzed using Flowjo (Tree Star, Inc., Ashland, Oreg.).
Human CD138+ cells in the bone marrow on day 32 was analyzed using one-way analysis of variance (ANOVA) with a Dunnett's adjustment at 0.05 significance level. Data from MM.1 s positive control were excluded from analysis. A probability of less than 5% (p<0.05) was considered as significant.

[2] = tested on: My-La T lymphoma cells; test: T lymphoma cell line cell killing assay; type: cell-based; details: 120 hours
Procedure: (§2) A total of 12500 cells in a volume of 25 μL were seeded in a 384-well flat bottom white polystyrene plate the day before the assay. […] Filter-sterilized compounds were serial diluted in culture medium and 25 μL of the compounds were added into treatment wells in quadruplicates. Plates were cultured at 37° C. in a CO2 incubator for 120 hours. For cell viability measurement, 30 μL of Cell Titer-Glo® reagent (Promega Corp.; Madison, Wis.) was added into each well, and plates were processed per product instructions. Relative luminescence was measured on an ENVISION® plate reader (Perkin-Elmer; Waltham, Mass.). Relative luminescence readings were converted to percent (%) viability using untreated cells as controls. Data was fitted with non-linear regression analysis, using log(inhibitor) vs. response, variable slope, 4-parameter fit equation using GraphPad Prism (GraphPad v 5.00, Software; San Diego, Calif.). Data was expressed as percent (%) relative cell viability (average of the quadruplicates) vs. dose of compounds in units of nanomolar (nM). Cell killing EC50 values and span were calculated by Prism in order to evaluate the potency of each compound on each cell line.

[3] = tested on: HuT-78 T lymphoma cells; test: T lymphoma cell line cell killing assay; type: cell-based; details: HuT-78, 120 hours
Procedure: as §2

[4] = tested on: MJ T lymphoma cells; test: T lymphoma cell line cell killing assay; type: cell-based; set-up: key to Cell killing Span: NC = Not Calculable; NK = No Killing; details: 120 hours
Procedure: as §2

[5] = tested on: Jurkat T leukemia cells; test: T lymphoma cell line cell killing assay; type: cell-based; set-up: key to Cell killing Span: NC = Not Calculable; NK = No Killing; details: 120 hours
Procedure: as §2

[6] = tested on: SU-DHL-6 NHL tumors; test: Subcutaneous SU-DHL-6 non-Hodgkin's lymphoma model; type: in vivo, mouse; details: CB17 SCID mice, s.c. SU-DHL-6, 10 mg/kg q7dx3 IV
Procedure: Female CB17 SCID mice 9 weeks of age were anesthetized with isoflurane and implanted subcutaneously into the right flank with a 1:1 mixture of SU-DHL-6 cells and matrigel. Randomization, enrollment into treatment groups, and start of treatment was initiated approximately 14 days post implantation. Treatment groups are outlined in Table 6. All test articles were formulated in 10 mM citrate pH 6.0, 9% sucrose and diluted in PBS. Body weight and tumor size were monitored twice per week until mean of control treated tumors were >1000 mm^3 or end of study. Animal body weights included the tumor weight. Percent body weight change (BWC) is calculated relative to weight on the day of treatment. No samples were collected at the end of study.
Tumor size on day 18 post-tumor implantation (last day control animals were on study) was analyzed using a one-way analysis of variance (ANOVA) with Dunnett's multiple comparison test. A probability of less than 5% (p<0.05) was considered as significant.

[7] = tested on: ARP-1 multiple myeloma cells; test: Disseminated ARP-1 multiple myeloma model; type: in vivo, mouse; details: CB17 SCID mice, ARP-1 i.v., 3 mg/kg q7dx4 IV
Procedure: Female CB17 SCID (severe combined immunodeficiency) were inoculated with ARP-1 cells via tail vein injection. Prior to tumor cell inoculation, animals were pre-treated with 0.4 mg/mouse Fludarabine and 2 mg/mouse Cyclophosphamide (intraperitoneal injection). Randomization and treatment was initiated 14 days post tumor inoculation. Treatment groups are outlined in Table 4. All test articles were formulated in 10 mM citrate pH 6.0, 10% sucrose and diluted with PBS. Animals were administered with the designated test article four times every 7 days (q7dx4) by intravenous injection. […] Body weights were monitored twice per week. When vehicle control animals reached the study endpoint (euthanized due to large, palpable internal tumors), three animals from the Group 2 and Group 3 were euthanized for necropsy and bone marrow harvest (from tibia and femur) for flow cytometry. The remaining animals in treated groups were monitored for up to 3 months after start of treatment.
as §1, with “for” for “for human”, “protocol.” for “protocol. CD138 is a specific surface antigen for MM and plasma cells in the bone marrow (Chilosi, M. et al. (1999), supra).”
Body weight, tissue volume, or tissue weights at study endpoint, were analyzed using a one-way analysis of variance (ANOVA) with Dunnett's multiple comparison test. A probability of less than 5% (p<0.05) was considered as significant.

B1: Conjugate A: anti-CD74 IgG with pAMF at heavy chain EU position 404 conjugated to DBCO-PEG4-maytansine (conjugate)
VH: QVQLVESGGGVVQPGRSLRLSCAASGFNFSDYGMHWVRQAPGKGLEWVAVIWYDGSISYYADSVKGRFTISRDNSKNTLYLQMNSLRAEDTAVYYCARGGTVEHGAVYGTDVWGQGTTVTVSS
VL: DIQMTQSPSSVSASVGDRVTITCRASQGIGSWLAWYQQKPGKAPKLLIYAADRLQSGVPSRFSGSGSGTDFTLTISSLQPEDFATYYCQQYHTYPLTFGGGTKVEIK
modifications: non-natural residues
survival ([1]; 3 mg/kg q7dx3 IV): 100%
survival ([1]; 10 mg/kg q7dx3 IV): 100%
tumor burden: hCD138+ myeloma cells in the bone marrow ([1]; 3 mg/kg q7dx3 IV): significantly reduced tumor burden
hCD138+ cells in the bone marrow ([1]; 3 mg/kg q7dx3 IV): no hCD138+ cells were detected
tumor burden: hCD138+ myeloma cells in the bone marrow ([1]; 10 mg/kg q7dx3 IV): significantly reduced tumor burden
hCD138+ cells in the bone marrow ([1]; 10 mg/kg q7dx3 IV): no hCD138+ cells were detected
Cell killing Span [2]: 73%
EC50 [2]: 0.54 nM
cell killing activity (in words) [2]: potent cell killing activity
Cell killing Span [3]: 72%
EC50 [3]: 0.59 nM
cell killing activity (in words) [3]: potent cell killing activity
Cell killing Span [4]: NC
cell killing activity (in words) [4]: less potent cell killing
Cell killing Span [5]: NK
EC50 [5]: > 50 nM
cell killing activity (in words) [5]: No cell killing was observed
Average final tumor size on day 18 [6]: 291 mm^3
tolerability (effects on animal body weights) [6]: well tolerated
tumor growth inhibition compared to control ([6]; day 18): ~80%
body weight change (BWC) [7]: No meaningful change in body weight
delay of weight gain after first round of treatment [7]: approximately 20 days
human CD138 positive ARP-1 myeloma cells in the bone marrow (femur and tibia) ([7]; flow cytometry): substantially inhibited ARP-1 growth in the bone marrow
kidney and ovary tissue weights ([7]; n=3): comparable tissue weights to untreated age-matched control animals

Source: patent publication US20200207859A1 (priority 2017, published 2020)
